In article PMC8298264, “Function of cofactor Akirin2 in the regulation of gene expression in model human neutrophil-like HL60 cells” (Bioscience Reports, 2021):

B1: sp¦P51148¦RAB5C_HUMAN (protein, UniProt P51148 1-216, looked up)
Ras-related protein Rab-5C: MAGRGGAARPNGPAAGNKICQFKLVLLGESAVGKSSLVLRFVKGQFHEYQESTIGAAFLTQTVCLDDTTVKFEIWDTAGQERYHSLAPMYYRGAQAAIVVYDITNTDTFARAKNWVKELQRQASPNIVIALAGNKADLASKRAVEFQEAQAYADDNSLLFMETSAKTAMNVNEIFMAIAKKLPKNEPQNATGAPGRNRGVDLQENNPASRSQCCSN
B2: sp¦P21964¦COMT_HUMAN (protein, UniProt P21964 1-271, looked up)
Catechol O-methyltransferase: MPEAPPLLLAAVLLGLVLLVVLLLLLRHWGWGLCLIGWNEFILQPIHNLLMGDTKEQRILNHVLQHAEPGNAQSVLEAIDTYCEQKEWAMNVGDKKGKIVDAVIQEHQPSVLLELGAYCGYSAVRMARLLSPGARLITIEINPDCAAITQRMVDFAGVKDKVTLVVGASQDIIPQLKKKYDVDTLDMVFLDHWKDRYLPDTLLLEECGLLRKGTVLLADNVICPGAPDFLAHVRGSSCFECTHYQSFLEYREVVDGLEKAIYKGPGSEAGP
B3: sp¦Q9BVC6¦TM109_HUMAN (protein, UniProt Q9BVC6 34-243, looked up)
Voltage-gated monoatomic …: QSRRDFAPPGQQKREAPVDVLTQIGRSVRGTLDAWIGPETMHLVSESSSQVLWAISSAISVAFFALSGIAAQLLNALGLAGDYLAQGLKLSPGQVQTFLLWGAGALVVYWLLSLLLGLVLALLGRILWGLKLVIFLAGFVALMRSVPDPSTRALLLLALLILYALLSRLTGSRASGAQLEAKVRGLERQVEELRWRQRRAAKGARSVEEE
B4: sp¦Q53GQ0¦DHB12_HUMAN (protein, UniProt Q53GQ0 1-312, looked up)
Very-long-chain 3-oxoacyl-CoA …: MESALPAAGFLYWVGAGTVAYLALRISYSLFTALRVWGVGNEAGVGPGLGEWAVVTGSTDGIGKSYAEELAKHGMKVVLISRSKDKLDQVSSEIKEKFKVETRTIAVDFASEDIYDKIKTGLAGLEIGILVNNVGMSYEYPEYFLDVPDLDNVIKKMININILSVCKMTQLVLPGMVERSKGAILNISSGSGMLPVPLLTIYSATKTFVDFFSQCLHEEYRSKGVFVQSVLPYFVATKLAKIRKPTLDKPSPETFVKSAIKTVGLQSRTNGYLIHALMGSIISNLPSWIYLKIVMNMNKSTRAHYLKKTKKN
B5: sp¦P61019¦RAB2A_HUMAN (protein, UniProt P61019 2-212, looked up)
Ras-related protein Rab-2A: AYAYLFKYIIIGDTGVGKSCLLLQFTDKRFQPVHDLTIGVEFGARMITIDGKQIKLQIWDTAGQESFRSITRSYYRGAAGALLVYDITRRDTFNHLTTWLEDARQHSNSNMVIMLIGNKSDLESRREVKKEEGEAFAREHGLIFMETSAKTASNVEEAFINTAKEIYEKIQEGVFDINNEANGIKIGPQHAATNATHAGNQGGQQAGGGCC
B6: sp¦P27105¦STOM_HUMAN (protein, UniProt P27105 1-288, looked up)
Stomatin: MAEKRHTRDSEAQRLPDSFKDSPSKGLGPCGWILVAFSFLFTVITFPISIWMCIKIIKEYERAIIFRLGRILQGGAKGPGLFFILPCTDSFIKVDMRTISFDIPPQEILTKDSVTISVDGVVYYRVQNATLAVANITNADSATRLLAQTTLRNVLGTKNLSQILSDREEIAHNMQSTLDDATDAWGIKVERVEIKDVKLPVQLQRAMAAEAEASREARAKVIAAEGEMNASRALKEASMVITESPAALQLRYLQTLTTIAAEKNSTIVFPLPIDMLQGIIGAKHSHLG
B7: sp¦Q15645¦PCH2_HUMAN (protein, UniProt Q15645 1-432, looked up)
Pachytene checkpoint protein …: MDEAVGDLKQALPCVAESPTVHVEVHQRGSSTAKKEDINLSVRKLLNRHNIVFGDYTWTEFDEPFLTRNVQSVSIIDTELKVKDSQPIDLSACTVALHIFQLNEDGPSSENLEEETENIIAANHWVLPAAEFHGLWDSLVYDVEVKSHLLDYVMTTLLFSDKNVNSNLITWNRVVLLHGPPGTGKTSLCKALAQKLTIRLSSRYRYGQLIEINSHSLFSKWFSESGKLVTKMFQKIQDLIDDKDALVFVLIDEVESLTAARNACRAGTEPSDAIRVVNAVLTQIDQIKRHSNVVILTTSNITEKIDVAFVDRADIKQYIGPPSAAAIFKIYLSCLEELMKCQIIYPRQQLLTLRELEMIGFIENNVSKLSLLLNDISRKSEGLSGRVLRKLPFLAHALYVQAPTVTIEGFLQALSLAVDKQFEERKKLAAYI
B8: sp¦Q9H939¦PPIP2_HUMAN (protein, UniProt Q9H939 1-334, looked up)
Proline-serine-threonine …: MTRSLFKGNFWSADILSTIGYDNIIQHLNNGRKNCKEFEDFLKERAAIEERYGKDLLNLSRKKPCGQSEINTLKRALEVFKQQVDNVAQCHIQLAQSLREEARKMEEFREKQKLQRKKTELIMDAIHKQKSLQFKKTMDAKKNYEQKCRDKDEAEQAVSRSANLVNPKQQEKLFVKLATSKTAVEDSDKAYMLHIGTLDKVREEWQSEHIKACEAFEAQECERINFFRNALWLHVNQLSQQCVTSDEMYEQVRKSLEMCSIQRDIEYFVNQRKTGQIPPAPIMYENFYSSQKNAVPAGKATGPNLARRGPLPIPKSSPDDPNYSLVDDYSLLYQ
B9: sp¦O95104¦SCAF4_HUMAN (protein, UniProt O95104 1-1147, looked up)
SR-related and CTD-associated …: MDAVNAFNQELFSLMDMKPPISRAKMILITKAAIKAIKLYKHVVQIVEKFIKKCKPEYKVPGLYVIDSIVRQSRHQFGTDKDVFGPRFSKNITATFQYLYLCPSEDKSKIVRVLNLWQKNGVFKIEIIQPLLDMAAGTSNAAPVAENVTNNEGSPPPPVKVSSEPPTQATPNSVPAVPQLPSSDAFAAVAQLFQTTQGQQLQQILQTFQQPPKPQSPALDNAVMAQVQAITAQLKTTPTQPSEQKAAFPPPEQKTAFDKKLLDRFDYDDEPEAVEESKKEDTTAVTTTAPAAAVPPAPTATVPAAAAPAAASPPPPQAPFGFPGDGMQQPAYTQHQNMDQFQPRMMGIQQDPMHHQVPLPPNGQMPGFGLLPTPPFPPMAQPVIPPTPPVQQPFQASFQAQNEPLTQKPHQQEMEVEQPCIQEVKRHMSDNRKSRSRSASRSPKRRRSRSGSRSRRSRHRRSRSRSRDRRRHSPRSRSQERRDREKERERRQKGLPQVKPETASVCSTTLWVGQLDKRTTQQDVASLLEEFGPIESINMIPPRGCAYIVMVHRQDAYRALQKLSRGNYKVNQKSIKIAWALNKGIKADYKQYWDVELGVTYIPWDKVKPEELESFCEGGMLDSDTLNPDWKGIPKKPENEVAQNGGAETSHTEPVSPIPKPLPVPVPPIPVPAPITVPPPQVPPHQPGPPVVGALQPPAFTPPLGIPPPGFGPGVPPPPPPPPFLRPGFNPMHLPPGFLPPGPPPPITPPVSIPPPHTPPISIPNSTIAGINEDTTKDLSIGNPIPTVVSGARGNAESGDSVKMYGSAVPPAAPTNLPTPPVTQPVSLLGTQGVAPGPVIGLQAPSTGLLGARPGLIPLQRPPGMPPPHLQRFPLMPPRPMPPHMMHRGPPPGPGGFAMPPPHGMKGPFPPHGPFVRPGGMPGLGGPGPGPGGPEDRDGRQQPPQQPQQQPQPQAPQQPQQQQQQQPPPSQQPPPTQQQPQQFRNDNRQQFNSGRDQERFGRRSFGNRVENDRERYGNRNDDRDNSNRDRREWGRRSPDRDRHRDLEERNRRSSGHRDRERDSRDRESRREKEEARGKEKPEVTDRAGGNKTVEPPISQVGNVDTASELEKGVSEAAVLKPSEELPAEATSSVEPEKDSGSAAEAPR
B10: sp¦P10515¦ODP2_HUMAN (protein, UniProt P10515 87-647, looked up)
Dihydrolipoyllysine-residue …: SLPPHQKVPLPSLSPTMQAGTIARWEKKEGDKINEGDLIAEVETDKATVGFESLEECYMAKILVAEGTRDVPIGAIICITVGKPEDIEAFKNYTLDSSAAPTPQAAPAPTPAATASPPTPSAQAPGSSYPPHMQVLLPALSPTMTMGTVQRWEKKVGEKLSEGDLLAEIETDKATIGFEVQEEGYLAKILVPEGTRDVPLGTPLCIIVEKEADISAFADYRPTEVTDLKPQVPPPTPPPVAAVPPTPQPLAPTPSAPCPATPAGPKGRVFVSPLAKKLAVEKGIDLTQVKGTGPDGRITKKDIDSFVPSKVAPAPAAVVPPTGPGMAPVPTGVFTDIPISNIRRVIAQRLMQSKQTIPHYYLSIDVNMGEVLLVRKELNKILEGRSKISVNDFIIKASALACLKVPEANSSWMDTVIRQNHVVDVSVAVSTPAGLITPIVFNAHIKGVETIANDVVSLATKAREGKLQPHEFQGGTFTISNLGMFGIKNFSAIINPPQACILAIGASEDKLVPADNEKGFDVASMMSVTLSCDHRVVDGAVGAQWLAEFRKYLEKPITMLL
B11: sp¦P51159¦RB27A_HUMAN (protein, UniProt P51159 2-221, looked up)
Ras-related protein Rab-27A: SDGDYDYLIKFLALGDSGVGKTSVLYQYTDGKFNSKFITTVGIDFREKRVVYRASGPDGATGRGQRIHLQLWDTAGQERFRSLTTAFFRDAMGFLLLFDLTNEQSFLNVRNWISQLQMHAYCENPDIVLCGNKSDLEDQRVVKEEEAIALAEKYGIPYFETSAANGTNISQAIEMLLDLIMKRMERCVDKSWIPEGVVRSNGHASTDQLSEEKEKGACGC
B12: sp¦Q96JJ7¦TMX3_HUMAN (protein, UniProt Q96JJ7 25-454, looked up)
Protein disulfide-isomerase …: KGFVEDLDESFKENRNDDIWLVDFYAPWCGHCKKLEPIWNEVGLEMKSIGSPVKVGKMDATSYSSIASEFGVRGYPTIKLLKGDLAYNYRGPRTKDDIIEFAHRVSGALIRPLPSQQMFEHMQKRHRVFFVYVGGESPLKEKYIDAASELIVYTYFFSASEEVVPEYVTLKEMPAVLVFKDETYFVYDEYEDGDLSSWINRERFQNYLAMDGFLLYELGDTGKLVALAVIDEKNTSVEHTRLKSIIQEVARDYRDLFHRDFQFGHMDGNDYINTLLMDELTVPTVVVLNTSNQQYFLLDRQIKNVEDMVQFINNILDGTVEAQGGDSILQRLKRIVFDAKSTIVSIFKSSPLMGCFLFGLPLGVISIMCYGIYTADTDGGYIEERYEVSKSENENQEQIEESKEQQEPSSGGSVVPTVQEPKDVLEKKKD
B13: sp¦Q9H9B4¦SFXN1_HUMAN (protein, UniProt Q9H9B4 2-322, looked up)
Sideroflexin-1: SGELPPNINIKEPRWDQSTFIGRANHFFTVTDPRNILLTNEQLESARKIVHDYRQGIVPPGLTENELWRAKYIYDSAFHPDTGEKMILIGRMSAQVPMNMTITGCMMTFYRTTPAVLFWQWINQSFNAVVNYTNRSGDAPLTVNELGTAYVSATTGAVATALGLNALTKHVSPLIGRFVPFAAVAAANCINIPLMRQRELKVGIPVTDENGNRLGESANAAKQAITQVVVSRILMAAPGMAIPPFIMNTLEKKAFLKRFPWMSAPIQVGLVGFCLVFATPLCCALFPQKSSMSVTSLEAELQAKIQESHPELRRVYFNKGL

Test system: human HL60 cells
Test: SWATH-MS proteomics, differential protein representation, akirin2 KO vs WT HL60 cells
Assay type: cell-based
Settings: sheet "Under-represented in KO"
How it was run: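 Proteins from WT and akirin2 KO HL60 cells (n=3 biological replicates) were FASP trypsin-digested and analyzed by SWATH-MS DIA with variable windows against an IDA-derived spectral library. Identifications at 1% global FDR; quantities normalized to total area sums of all detected proteins.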

[1] = KO vs WT, akirin2 KO vs WT HL60 cells

Row | Molecule | Fold Change [1] | Log (Fold Change) [1] | also measured
1 | B1 |  |  | Fold Change (KO vs WT HL60 cells): 0.5435; Log (Fold Change) (KO vs WT HL60 cells): -0.2648
2 | B2 | 0.567 | -0.2464 | 
3 | B3 | 0.5517 | -0.2583 | 
4 | B4 | 0.5753 | -0.2401 | 
5 | B5 | 0.5636 | -0.249 | 
6 | B6 |  |  | Fold Change (KO vs WT HL60 cells): 0.5492; Log (Fold Change) (KO vs WT HL60 cells): -0.2603
7 | B7 | 0.5524 | -0.2577 | 
8 | B8 | 0.5689 | -0.2449 | 
9 | B9 | 0.586 | -0.2321 | 
10 | B10 | 0.571 | -0.2434 | 
11 | B11 |  |  | Fold Change (KO vs WT HL60 cells): 0.5507; Log (Fold Change) (KO vs WT HL60 cells): -0.2591
12 | B12 |  |  | Fold Change (akirin2 KO vs WT HL60 cells): 0.267; Log (Fold Change) (akirin2 KO vs WT HL60 cells): -0.5736
13 | B13 | 0.5707 | -0.2436 | 
